Reference: publication PMC3491057, “Proliferating Cell Nuclear Antigen (PCNA) Interactions in Solution Studied by NMR” (PLoS ONE, 2012)
Entries after “also recorded” stand apart in the source; their conditions may differ.

What was measured:
PCNA [1] = conditions: co-immunoprecipitation, lysates from co-transfected human embryonic cells and native HeLa cells; cited from earlier work
From the text: MCL-1 is a member of the pro-survival B-cell lymphoma-leukemia-2 (Bcl-2) family that preserves mitochondrial integrity during apoptosis. It consists of an intrinsically disordered, 170 residue long N-terminal region and a C-terminal globular domain with three Bcl-2 homology (BH) regions. […] MCL-1 has a sequence that meets this minimal PIP-box motif (^221 […] ^228) at the end of the BH3 region in its globular C-terminal domain.

[2] = system: PCNA C-terminal fragment 137–261; conditions: yeast two-hybrid; cited from earlier work
From the text: MCL-1 has a sequence that meets this minimal PIP-box motif (^221 […] ^228) at the end of the BH3 region in its globular C-terminal domain.

human PCNA = biological target: T1, human PCNA (Homo sapiens, UniProt P12004); experiment: NMR (TROSY) examination of the interaction of PCNA with MCL-1 construct; format: binding; conditions: 35°C; for binding to PCNA (chemical shift or intensity changes): 50 µM 2H-15N PCNA, 220 µM MCL-1 construct (4.4 equivalents), 10 mM Tris pH 7.4, 250 mM NaCl, 1 mM EDTA, 0.5 mM DTT, 800 MHz
T1 construct: His6 tag with PreScission protease cleavage site (N, cleaved yes); made in house; host or cells: E. coli
Experimental: The human MCL-1 ΔN151−ΔC7 construct cloned in vector pET32a was expressed and purified as described. Briefly, the protein was expressed in E. coli BL21(DE3) cells with a histidine-tag and a Tev protease site at the N-terminus, and was purified by two chromatography steps: immobilized nickel ion affinity and size exclusion.
Unless indicated otherwise, the NMR spectra were recorded on a Bruker AV600 spectrometer equipped with a cryogenically-cooled triple resonance z-gradient probe at 35°C on PCNA samples with or without ligands in PBS pH 7.0. The spectra in Figures S2, S4, S7 and S8 were recorded on a Bruker AV800 spectrometer with a cryogenically-cooled triple resonance z-gradient probe on samples and buffers described in the corresponding legends. TROSY-based 3D HNCO, HN(CA)CO, HNCACB, HN(CO)CACB, and HNCA [21] were recorded for resonance assignment. Spectra were processed with TopSpin (Bruker) or with NMRPipe and analyzed using NMRView. Peak intensities were evaluated by the peak heights measured using CCPNMR [24].
We have monitored the binding of MCL-1 to PCNA by NMR using an MCL-1 construct that lacks most of the disordered N-terminal region but retains the C-terminal domain correctly folded. […] As no significant CSPs were measured, it is not possible to confirm the interaction, but a lower limit for the dissociation constant of the putative complex can be estimated. Assuming an equimolar complex, and that we should be able to detect significant changes when at least 20% of PCNA is bound to MCL-1 [42], a lower limit of the dissociation constant can be calculated. […]
Supplementary file pone.0048390.s007.tif: Figure S7 NMR examination of the interaction of PCNA with MCL-1. ^1H-^15N TROSY spectra of 50 µM uniformly labeled ^2H-^15N PCNA alone (black) or in the presence (red) of 220 µM of the ΔN151−ΔC7 fragment of human MCL-1 (1∶4.4 ratio on a PCNA monomer basis). The spectra were recorded in 10 mM Tris pH 7.4, 250 mM NaCl, 1 mM EDTA, 0.5 mM DTT at 800 MHz and 35°C. […]

PCNA [3] = system: PCNA; parameters: method as in PMID 20460379; conditions: cited from earlier work

T1 sequence (P12004 whole entry): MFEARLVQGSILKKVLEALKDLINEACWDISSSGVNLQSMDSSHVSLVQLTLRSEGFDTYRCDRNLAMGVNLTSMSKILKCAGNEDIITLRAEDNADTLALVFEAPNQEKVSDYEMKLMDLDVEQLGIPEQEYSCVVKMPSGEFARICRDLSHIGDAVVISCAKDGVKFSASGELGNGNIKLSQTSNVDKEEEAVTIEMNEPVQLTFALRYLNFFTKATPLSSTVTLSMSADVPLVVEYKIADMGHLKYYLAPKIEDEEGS

B1: MCL-1: Myeloid cell leukemia 1 protein, literature interaction with PCNA (protein)
chain: NNTSTDGSLPSTPPPAEEEEDELYRQSLEIISRYLREQATGAKDTKPMGRSGATSRKALETLRRVGDGVQRNHETAFQGMLRKLDIKNEDDVKSLSRVMIHVFSDGVTNWGRIVTLISFGAFVAKHLKTINQESCIEPLAESITDVLVRTKRDWLVKQRGWDGFVEFFHVEDLEGGIRNVLLAFAGVAGVGA
modifications: left off: His tag, N-terminal, kept
interaction with PCNA (PCNA [1]): interact with PCNA; also recorded: detected by co-immunoprecipitation | interaction with PCNA fragment 137–261 [2]: sufficient for the interaction with MCL-1

B2: ΔN151−ΔC7: MCL-1 residues 152–343 plus an N-terminal histidine-tag (protein)
chain: NNTSTDGSLPSTPPPAEEEEDELYRQSLEIISRYLREQATGAKDTKPMGRSGATSRKALETLRRVGDGVQRNHETAFQGMLRKLDIKNEDDVKSLSRVMIHVFSDGVTNWGRIVTLISFGAFVAKHLKTINQESCIEPLAESITDVLVRTKRDWLVKQRGWDGFVEFFHVEDLEGGIRNVLLAFAGVAGVGA
modifications: left off: His tag, N-terminal, kept
binding to PCNA (chemical shift or intensity changes) (human PCNA): did not observe any indication of binding | binding to PCNA (chemical shift or intensity changes) (human PCNA; listed as Bcl-2 domain of MCL-1): did not detect binding | Kd (human PCNA; assuming equimolar complex and detection at ≥20% PCNA bound, 50 µM PCNA, 220 µM MCL-1 construct, read-out: dissociation constant (lower limit)): > 840 µM

B3: Gadd45α: Growth arrest and DNA damage 45 alpha protein (protein, UniProt P24522 1-165, looked up)
Growth arrest and DNA …: MTLEEFSAGEQKTERMDKVGDALEEVLSKALSQRTITVGVYEAAKLLNVDPDNVVLCLLAADEDDDRDVALQIHFTLIQAFCCENDINILRVSNPGRLAELLLLETDAGPAASEGAEQPPDLHCVLVTNPHSSQWKDPALSQLICFCRESRYMDQWVPVINLPER
direct interaction with PCNA in solution (PCNA [3]): extremely weak
